Molecular target: the molecule itself
Test: crystal structure (chains A and B in the asymmetric unit) and size exclusion chromatography

B1: PpArsN1 (ArsN1 arsinothricin N-acetyltransferase from Pseudomonas putida KT2440), one subunit (enzyme)
chain: MHSGIDIRVARPEDAEEIQIIYAPIVLNTAISFEEAVPSVEQMRERISTTLQTYPYLVAVREGRVVGYAYASQHRARAAYRWAVDVTVYVAEGQRRSGIARQLYDVLLPVLKRLGYRSAYAGIALPNEGSVGLHERLGFQHIGTFPQVGFKLDAWHDVGYWRFDFGDEGLHPEAPLGFLSQIPVPR
notes: Written as a single subunit; also called phoN1 gene product; not shown: C-terminal six histidine tag from vector pBAD-Myc/His-A; the vector-derived residues between protein and tag are not sta
binding result: binds
